Experimental data as given in patent US20150297672A1, “Alpha- and gamma-MSH analogues” (TXP Pharma GmbH, priority 2014, published 2015).

Molecular target: human melanocortin receptor type 1 (MC1r) (human) (UniProt Q01726)
Assay: cell-based or functional assay

Sequence of human melanocortin receptor type 1 (MC1r) (human) (Q01726 whole entry): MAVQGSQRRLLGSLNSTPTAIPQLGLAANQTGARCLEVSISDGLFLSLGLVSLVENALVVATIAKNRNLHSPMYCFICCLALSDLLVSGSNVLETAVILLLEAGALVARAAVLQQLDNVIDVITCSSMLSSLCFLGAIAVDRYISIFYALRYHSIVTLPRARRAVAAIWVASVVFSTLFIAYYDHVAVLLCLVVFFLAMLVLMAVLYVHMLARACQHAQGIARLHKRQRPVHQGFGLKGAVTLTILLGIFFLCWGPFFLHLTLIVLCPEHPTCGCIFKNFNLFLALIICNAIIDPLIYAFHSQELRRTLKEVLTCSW

## Ac-KKKKKKSYSMEHFRWGKPV-NH2
  EC50, cAMP production: 2.12 nM
  Emax (max efficacy expressed as percent of αMSH), cAMP production: 72 % of αMSH
  maximal efficacy (Emax), cAMP production: 3 nM

B1: Ac(Lys)6-NDP-αMSH (Ac(Lys)6-Ser-Tyr-Ser-Nle Glu-His-(D-Phe)-Arg-Trp-Gly-Lys-Pro-Val-NH2) (peptide)
peptide: KKKKKKSYSXEHFRWGKPV
modifications: N-terminal acetyl; Nle (norleucine) at position 10 (written X); D-Phe at position 13; C-terminal amide
  EC50, cAMP production: 1.35 nM
  Emax (max efficacy expressed as percent of αMSH), cAMP production: 62 % of αMSH
